Literature values as cited in article PMC9623233 (Clinical Cancer Research, 2022).
Where two headings read alike, the source gives them in different places.

Details: cited from earlier work

Substance: mirvetuximab soravtansine: α-FR–targeted antibody–drug conjugate with maytansine payload
- Pneumonitis (combined with bevacizumab): 9%
- Pneumonitis (single agent): 2.9%
